Assay results reported in patent publication US20150376238A1 (University of Washington, published 2015).
Positions count from the first letter of the chain named. Numbers in names are those of the source.

B1: Variant H3 24-3a (I2T, V29E) (designed binder)
chain: GTGMVAISMDTDKISNSFEDCKYFLIVVESAGWTNTIFNDESGKKEIVKMNVDAIICKNISEENYKKFSKKIEIYHAEGDDVDKNISLFIEGELSKISNP
B2: Variant H3 24-8 (V27M, K49E) (designed binder)
chain: GTGMVAISMDTDKISNSFEDCKYFLIMVVSAGWTNTIFNDESGKKEIVEMNVDAIICKNISEENYKKFSKKIEIYHAEGDDVDKNISLFIEGELSKISNPLE
B3: Variant H3 24-2 (V27M, F38S, K49E) (designed binder)
chain: B1 chain with T2I, V27M, E29V, F38S, K49E
B4: Variant H3 24-3b (V28M) (designed binder)
chain: B2 chain with M27V, V28M, E49K

Target: H3 subtype hemagglutinin (strain not stated)

With B1 as the binder, how does the Kd read?
The Kd was 7.92 nM.

Which Kd does the source give for B2 here?
Its Kd is 14.8 nM.

Which Kd does the source give for B3 here?
The Kd was 8.97 nM.

For B4, which Kd is on record?
Its Kd is 12.7 nM.
